Test results taken from the supplement of paper PMC12764529.
± gives the half width of the 95% confidence interval.

Key:
[1] = folding stability dG unfold from chymotrypsin proteolysis; higher = more stable
Summary of the method: (§1)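 Unfolding free energy was derived, per protease or combined, by relating Bayesian-fitted K50 values from sequencing counts to a sequence-predicted unfolded-state K50 and a shared folded-state K50. The underlying digests exposed cysteine-free mini-proteins under 80 residues, in a PA-tagged cDNA display construct, to trypsin and chymotrypsin at 11 threefold-diluted concentrations and to a no-protease condition. A filter kept only designs with AlphaFold2 dimer inter-PAE above 15.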

[2] = folding stability dG unfold (combined trypsin and chymotrypsin); higher = more stable
Summary of the method: as §1

[3] = folding stability dG unfold from trypsin proteolysis; higher = more stable
Summary of the method: as §1

SAGNPSLVKETIIPFTLPDGSEVKLTVKTDPSTGKVTMPIETKDEKVKAKAIELAKKIAEELGFPEVGLSAG [r5_99_JUSTAS]
folding stability dG unfold [1]: 0.241 ± 0.14 kcal/mol | folding stability dG unfold [2]: 0.261 ± 0.079 kcal/mol | folding stability dG unfold [3]: -0.00377 ± 0.15 kcal/mol

SAGGSAPESVKPPVVVVTLVLEFPDGRKLTIPVAHEELAEALEVALALPLALEHDTKLVKVEKANVSAGGSA [r15_140_TrMRF]
folding stability dG unfold [1]: 0.736 ± 0.16 kcal/mol | folding stability dG unfold [2]: 0.558 ± 0.15 kcal/mol | folding stability dG unfold [3]: 0.265 ± 0.12 kcal/mol

SAGGSAGGSAGGSKPEVIKLKVKKIKVKKKKYDKNGKLVEEEEKEITVETTVFVPKEDLSAGGSAGGSAGGS [r4_425_TrROS_Hall]
folding stability dG unfold [1]: 0.336 ± 0.14 kcal/mol | folding stability dG unfold [2]: 0.182 ± 0.17 kcal/mol | folding stability dG unfold [3]: -0.381 ± 0.18 kcal/mol

SAMKVYEIPIEIPISKYKPSDIIAALKKALDKLNIPFPEEIIKELTIISIKTGGNISTAIKTLLENGLLSAG [r14_364_TrMRF]
folding stability dG unfold [1]: 1.29 ± 0.096 kcal/mol | folding stability dG unfold [2]: 1.56 ± 0.17 kcal/mol | folding stability dG unfold [3]: 1.69 ± 0.12 kcal/mol

SAGGSAGGSAGSMLTTTLPNGTPVTREFDIQDVEPKGDVIKVVITNPTGGEVPASTVIGPVNSAGGSAGGSA [r18_163_JUSTAS]
folding stability dG unfold [1]: 0.757 ± 0.03 kcal/mol | folding stability dG unfold [2]: 0.657 ± 0.081 kcal/mol | folding stability dG unfold [3]: 0.412 ± 0.051 kcal/mol

KETVTLEFELEDGSKVRVEVDLETKEVKVEVEKPPAPPPPPVIVLPPGLTEEERERLIKELEKKGIKVVVLS [r1_242_TrROS_Hall]
folding stability dG unfold [1]: 2.21 ± 0.09 kcal/mol | folding stability dG unfold [2]: 2.28 ± 0.13 kcal/mol | folding stability dG unfold [3]: 2.25 ± 0.13 kcal/mol

SAGMLKVKIKIEIEKDGKKIELEKEIEAESEEELLKAAEELAKELEKKGIKIKKIEVEVEKIPEPEEEESAG [r5_660_TrROS_Hall]
folding stability dG unfold [1]: 2.77 ± 0.055 kcal/mol | folding stability dG unfold [2]: 2.5 ± 0.12 kcal/mol | folding stability dG unfold [3]: 2.04 ± 0.12 kcal/mol

SWMFMIEVHDPKNGKERTVPINMPKEQVLDQIREAQEKGPRIEIWGIPPNAIKEIAEEAKLPVEIHPMPPSA [r9_1207_TrROS]
folding stability dG unfold [1]: 0.409 ± 0.15 kcal/mol | folding stability dG unfold [2]: 0.148 ± 0.14 kcal/mol | folding stability dG unfold [3]: 0.012 ± 0.24 kcal/mol

SAGGSAGGSMTRTITLSKEELKKKYPNATLEEIAKDIIEKEPGVKEVTVEEFPGTVKITVTKLSAGGSAGGS [r12_590_JUSTAS]
folding stability dG unfold [1]: 2.84 ± 0.058 kcal/mol | folding stability dG unfold [2]: 2.57 ± 0.18 kcal/mol | folding stability dG unfold [3]: 2 ± 0.086 kcal/mol

SAGGSAGGSAGGMKVYRIGPDLYLVENEDGSLRIYNRDTGKVFTFKPGETITITIPPELLSAGGSAGGSAGG [r7_299_TrROS_Hall]
folding stability dG unfold [1]: 2.79 ± 0.059 kcal/mol | folding stability dG unfold [2]: 2.7 ± 0.11 kcal/mol | folding stability dG unfold [3]: 2.18 ± 0.075 kcal/mol

SAGGSAGGSALKPNETATIRILTTAPDGKPYVLVVEVRVLPDGGVEVLGYKLVTLSDLEKNSAGGSAGGSAG [r3_212_TrMRF]
folding stability dG unfold [1]: 3.74 ± 0.082 kcal/mol | folding stability dG unfold [2]: 3.32 ± 0.11 kcal/mol | folding stability dG unfold [3]: 2.53 ± 0.11 kcal/mol

SAGGSGMSFSITEEVVIPTPGPRTLLLLKTEGDIIIVERDGERLRPVKTVPRKEVPEEPEKLIEELSAGGSA [r2_133_JUSTAS]
folding stability dG unfold [1]: -0.243 ± 0.15 kcal/mol | folding stability dG unfold [2]: -0.434 ± 0.12 kcal/mol | folding stability dG unfold [3]: -1.07 ± 0.34 kcal/mol

SAGEVKIEISVEKVGGKYIVRIKVTVDGKEYEYEFPAGKSVEELAKELEKKLNLKVKKIEVEVRKLPPKSAG [r5_181_TrROS_Hall]
folding stability dG unfold [1]: 3.47 ± 0.12 kcal/mol | folding stability dG unfold [2]: 3.28 ± 0.25 kcal/mol | folding stability dG unfold [3]: 2.88 ± 0.11 kcal/mol

SAGGSAKVVEKDGKLVIELEVPPDMSEEELKKLAEELAKLLPPGAKIEVKYDKETKRVVIVVELKDSAGGSA [r15_210_TrROS_Hall]
folding stability dG unfold [1]: 1.79 ± 0.16 kcal/mol | folding stability dG unfold [2]: 1.79 ± 0.14 kcal/mol | folding stability dG unfold [3]: 1.64 ± 0.12 kcal/mol

SMSYTVTVEYPDTGKTTTTPIPPDALEVSVSLSGPSTIRITITTDVNGATTTTTSTVTLPPPALPPSTLLSA [r9_1067_JUSTAS]
folding stability dG unfold [1]: 0.927 ± 0.28 kcal/mol | folding stability dG unfold [2]: 1.06 ± 0.22 kcal/mol | folding stability dG unfold [3]: 1.11 ± 0.097 kcal/mol

SAGGSATPKDPDGKEWKPIAVIDIEEMRPETLKELLEENKGPIWIHPPGEGKPFWIPADEIEDMIDSAGGSA [r15_904_TrROS]
folding stability dG unfold [1]: -0.129 ± 0.2 kcal/mol | folding stability dG unfold [2]: 0.336 ± 0.21 kcal/mol | folding stability dG unfold [3]: 0.668 ± 0.054 kcal/mol

SAGGKKKKIKPKEIKVRIIIEKDGKKIEIELSEEELEKIKKAPTLEEIIKELEKKGFKIVKIEIEKKSAGGS [r16_567_TrROS_Hall]
folding stability dG unfold [1]: 3.05 ± 0.059 kcal/mol | folding stability dG unfold [2]: 2.43 ± 0.21 kcal/mol | folding stability dG unfold [3]: 1.19 ± 0.073 kcal/mol

SAGGSAGGMILLETEEGEPKAVILFELRDPLFGGEIPLEFLEELAEEIKEKFPEIKHIELIGLPSAGGSAGG [r6_793_TrMRF]
folding stability dG unfold [1]: 1.1 ± 0.03 kcal/mol | folding stability dG unfold [2]: 1.31 ± 0.08 kcal/mol | folding stability dG unfold [3]: 1.47 ± 0.047 kcal/mol

SSVTLVLEKPLPSGKRLVVVTTLKPEPARGTVRLDVTTTTYTFSKTENGEITTSSTTSTSTETVSPEELLSA [r9_1137_JUSTAS]
folding stability dG unfold [1]: 2.48 ± 0.18 kcal/mol | folding stability dG unfold [2]: 2.49 ± 0.29 kcal/mol | folding stability dG unfold [3]: 2.53 ± 0.13 kcal/mol

SANIQIMIEDWDPERGWIRISIQVDKGDPDKPITPELVNNIRELFRFRGIEVNIEVHPDGMVNIEIPIPSAG [r14_865_TrROS]
folding stability dG unfold [1]: 4.59 ± 0.051 kcal/mol | folding stability dG unfold [2]: 4.14 ± 0.094 kcal/mol | folding stability dG unfold [3]: 3.39 ± 0.069 kcal/mol

FEELRNLPGLSLTPLAEEGEVRVYRLSLPPSVLAARGLPGVTVTVTVFPDGSYTVLPDDVPALEAAGLVVES [r1_256_JUSTAS]
folding stability dG unfold [1]: 2.43 ± 0.037 kcal/mol | folding stability dG unfold [2]: 2.03 ± 0.045 kcal/mol | folding stability dG unfold [3]: 1.05 ± 0.02 kcal/mol
